Measured values from patent US20120230999A1 (ARIZONA BOARD OF REGENTS A BODY CORPORATE OF THE STATE OF …, published 2012).
The star is where a group is joined. DABCYL = CN(C)c1ccc(/N=N/c2ccc(C(=O)*)cc2)cc1; EDANS = O=S(=O)(O)c1cccc2c(NCCN*)cccc12

T1: internally quenched fluorogenic α-secretase substrate … (SMILES …)
T1 peptide: Ac-RE(EDANS)VHHQKLVFK(DABCYL)R-OH


Key:
[1] = target: T1, internally quenched fluorogenic …; test: cell-based or functional assay
[2] = target: T1, internally quenched fluorogenic …; test: cell-based or functional assay

kcat (per min), hydrolysis of α-secretase Aβ fluorogenic substrate [1] [per min]	kcat/Km (µM/min), hydrolysis of α-secretase Aβ fluorogenic substrate [1] [µM/min]	specificity constant (kcat/KM) relative to parent ASec-1 scFv [2] [fold]	Binder
34.8	58.1	5.6	ASec-1A scFv (scFv) scFv: DVLMETTQTPLTLSVTIGQPASISCKSSQSLLHTDGKTYLIWLLQRPGQSPKRLIYLVSKLDSGVPDRFTGSGSGTDFTLKISRVEAEDLGVYYCWQGTHFPQTFGGGTKLEIKRADAAPGGGGSGGGGSGGGGSGSESGGGLVKPGGSLKLSCAASGFTFSIYGMETFWFRQTPEKRLEWVATISGGDTYTYYPDSVKGRFTISRDNAKNNLFLQMETSSLRSEDTPLYFCGRNHQITMETWGQGTLVTVSA
61	40.4	2.8	ASec-1B scFv (scFv) scFv: DVLMETTQTPLTLSVTIGQPASISCKSSQSLLHTDGKTYLIWLLQRPGQSPKRLIYLVSKLDSGVPDRFTGSGSGTDFTLKISRVEAEDLGVYYCWQGTHFPQTFGGGTKLEIKRADAAPGGGGSGGGGSGGGGSGSESGGGLVKPGGSLKLSCAASGFAFSIYGMETSWFRQTPEKRLEWVATISGGDTYTYYPDSVKGRFTISRDNAKNNLFLQMETSSLRSEDTPLYFCGRSQKLHPWGQGLVTVSA
